Here are results for three variants from PMC7581431.

To fix the notation:
B1: Nkd1-BirA* [murine] / DVL1 [human (endogenous in Flp-In-T-REx-293)] (parent)
chain 1: MGKLHSKPAAVCKRRESPEGDSFAVSAAWARKGIEEWIGRQRCPGSVSGPRQLRLAGTVGRGTRELVGDTSREALGEEDEDDFPLEVALPPEKIDSLGSGDEKRMERLSEPGQASKKQLKFEELQCDVSVEEDSRQEWTFTLYDFDNNGKVTREDITSLLHTIYEVVDSSVNHSPTSSKTLRVKLTVAPDGSQSKRSVLFNHTDLQSTRPRADTKPAEELRGWEKKQRAPLRFQGDSHLEQPDCYHHCVDENIERRNHYLDLAGIENYTSQFGPGSPSVAQKSELPPRISNPTRSRSHEPEAAHIPHRRPQGVDPGSFHLLDTPFAKASELQQRLRGTQDGSKHFVRSPKAQGKNMGMGHGARGARSKPPLVPTTHTVSPSAHLATSPALLPTLAPLGHKKHKHRAKESQASCRGLQGPLAAGGSTVMGREQVRELPAVVVYESQAGQAVQRHEHHHHHEHHHHYHHFYQP
chain 2: MAETKIIYHMDEEETPYLVKLPVAPERVTLADFKNVLSNRPVHAYKFFFKSMDQDFGVVKEEIFDDNAKLPCFNGRVVSWLVLAEGAHSDAGSQGTDSHTDLPPPLERTGGIGDSRPPSFHPNVASSRDGMDNETGTESMVSHRRERARRRNREEAARTNGHPRGDRRRDVGLPPDSASTALSSELESSSFVDSDEDGSTSRLSSSTEQSTSSRLIRKHKRRRRKQRLRQADRASSFSSITDSTMSLNIVTVTLNMERHHFLGISIVGQSNDRGDGGIYIGSIMKGGAVAADGRIEPGDMLLQVNDVNFENMSNDDAVRVLREIVSQTGPISLTVAKCWDPTPRSYFTVPRADPVRPIDPAAWLSHTAALTGALPRYGTSPCSSAVTRTSSSSLTSSVPGAPQLEEAPLTVKSDMSAVVRVMQLPDSGLEIRDRMWLKITIANAVIGADVVDWLYTHVEGFKERREARKYASSLLKHGFLRHTVNKITFSEQCYYVFGDLCSNLATLNLNSGSSGTSDQDTLAPLPHPAAPWPLGQGYPYQYPGPPPCFPPAYQDPGFSYGSGSTGSQQSEGSKSSGSTRSSRRAPGREKERRAAGAGGSGSESDHTAPSGVGSSWRERPAGQLSRGSSPRSQASATAPGLPPPHPTTKAYTVVGGPPGGPPVRELAAVPPELTGSRQSFQKAMGNPCEFFVDIM
B2: Nkd1-BirA* [murine] / DVL3 [human (endogenous in Flp-In-T-REx-293)] (parent)
chain 1: B1 chain 1
chain 2: MGETKIIYHLDGQETPYLVKLPLPAERVTLADFKGVLQRPSYKFFFKSMDDDFGVVKEEISDDNAKLPCFNGRVVSWLVSAEGSHPDPAPFCADNPSELPPPMERTGGIGDSRPPSFHPHAGGGSQENLDNDTETDSLVSAQRERPRRRDGPEHATRLNGTAKGERRREPGGYDSSSTLMSSELETTSFFDSDEDDSTSRFSSSTEQSSASRLMRRHKRRRRKQKVSRIERSSSFSSITDSTMSLNIITVTLNMEKYNFLGISIVGQSNERGDGGIYIGSIMKGGAVAADGRIEPGDMLLQVNEINFENMSNDDAVRVLREIVHKPGPITLTVAKCWDPSPRGCFTLPRSEPIRPIDPAAWVSHTAAMTGTFPAYGMSPSLSTITSTSSSITSSIPDTERLDDFHLSIHSDMAAIVKAMASPESGLEVRDRMWLKITIPNAFIGSDVVDWLYHNVEGFTDRREARKYASNLLKAGFIRHTVNKITFSEQCYYIFGDLCGNMANLSLHDHDGSSGASDQDTLAPLPHPGAAPWPMAFPYQYPPPPHPYNPHPGFPELGYSYGGGSASSQHSEGSRSSGSNRSGSDRRKEKDPKAGDSKSGGSGSESDHTTRSSLRGPRERAPSERSGPAASEHSHRSHHSLASSLRSHHTHPSYGPPGVPPLYGPPMLMMPPPPAAMGPPGAPPGRDLASVPPELTASRQSFRMAMGNPSEFFVDVM
B3: Nkd1-BirA* [murine] / VANGL2 [human (endogenous in Flp-In-T-REx-293)] (parent)
chain 1: B1 chain 1
chain 2: MDTESQYSGYSYKSGHSRSSRKHRDRRDRHRSKSRDGGRGDKSVTIQAPGEPLLDNESTRGDERDDNWGETTTVVTGTSEHSISHDDLTRIAKDMEDSVPLDCSRHLGVAAGATLALLSFLTPLAFLLLPPLLWREELEPCGTACEGLFISVAFKLLILLLGSWALFFRRPKASLPRVFVLRALLMVLVFLLVVSYWLFYGVRILDARERSYQGVVQFAVSLVDALLFVHYLAVVLLELRQLQPQFTLKVVRSTDGASRFYNVGHLSIQRVAVWILEKYYHDFPVYNPALLNLPKSVLAKKVSGFKVYSLGEENSTNNSTGQSRAVIAAAARRRDNSHNEYYYEEAEHERRVRKRRARLVVAVEEAFTHIKRLQEEEQKNPREVMDPREAAQAIFASMARAMQKYLRTTKQQPYHTMESILQHLEFCITHDMTPKAFLERYLAAGPTIQYHKERWLAKQWTLVSEEPVTNGLKDGIVFLLKRQDFSLVVSTKKVPFFKLSEEFVDPKSHKFVMRLQSETSV

In one test the parent is B1. Put plainly: BioID proximity labeling (mass spectrometry). Conditions: with DVL1 [human (endogenous in Flp-In-T-REx-293)]; +Wnt3a.
For chain 1 MAKLHSKPAAVCKRRESPEGDSFAVSAAWARKGIEEWIGRQRCPGSVSGPRQLRLAGTVGRGTRELVGDTSREALGEEDEDDFPLEVALPPEKIDSLGSGDEKRMERLSEPGQASKKQLKFEELQCDVSVEEDSRQEWTFTLYDFDNNGKVTREDITSLLHTIYEVVDSSVNHSPTSSKTLRVKLTVAPDGSQSKRSVLFNHTDLQSTRPRADTKPAEELRGWEKKQRAPLRFQGDSHLEQPDCYHHCVDENIERRNHYLDLAGIENYTSQFGPGSPSVAQKSELPPRISNPTRSRSHEPEAAHIPHRRPQGVDPGSFHLLDTPFAKASELQQRLRGTQDGSKHFVRSPKAQGKNMGMGHGARGARSKPPLVPTTHTVSPSAHLATSPALLPTLAPLGHKKHKHRAKESQASCRGLQGPLAAGGSTVMGREQVRELPAVVVYESQAGQAVQRHEHHHHHEHHHHYHHFYQP [chain 1 G2A], the response (unweighted spectral counts) came to 127.

A further test covers variants of B2. Description: BioID proximity labeling (mass spectrometry). As to conditions: with DVL3 [human (endogenous in Flp-In-T-REx-293)]; +Wnt3a.
As for chain 1 MAKLHSKPAAVCKRRESPEGDSFAVSAAWARKGIEEWIGRQRCPGSVSGPRQLRLAGTVGRGTRELVGDTSREALGEEDEDDFPLEVALPPEKIDSLGSGDEKRMERLSEPGQASKKQLKFEELQCDVSVEEDSRQEWTFTLYDFDNNGKVTREDITSLLHTIYEVVDSSVNHSPTSSKTLRVKLTVAPDGSQSKRSVLFNHTDLQSTRPRADTKPAEELRGWEKKQRAPLRFQGDSHLEQPDCYHHCVDENIERRNHYLDLAGIENYTSQFGPGSPSVAQKSELPPRISNPTRSRSHEPEAAHIPHRRPQGVDPGSFHLLDTPFAKASELQQRLRGTQDGSKHFVRSPKAQGKNMGMGHGARGARSKPPLVPTTHTVSPSAHLATSPALLPTLAPLGHKKHKHRAKESQASCRGLQGPLAAGGSTVMGREQVRELPAVVVYESQAGQAVQRHEHHHHHEHHHHYHHFYQP [chain 1 G2A], the response (unweighted spectral counts) worked out at 240.

Variants of B3 are the subject of the next test. Description: BioID proximity labeling (mass spectrometry). As to conditions: with VANGL2 [human (endogenous in Flp-In-T-REx-293)]; +Wnt3a.
On to chain 1 MAKLHSKPAAVCKRRESPEGDSFAVSAAWARKGIEEWIGRQRCPGSVSGPRQLRLAGTVGRGTRELVGDTSREALGEEDEDDFPLEVALPPEKIDSLGSGDEKRMERLSEPGQASKKQLKFEELQCDVSVEEDSRQEWTFTLYDFDNNGKVTREDITSLLHTIYEVVDSSVNHSPTSSKTLRVKLTVAPDGSQSKRSVLFNHTDLQSTRPRADTKPAEELRGWEKKQRAPLRFQGDSHLEQPDCYHHCVDENIERRNHYLDLAGIENYTSQFGPGSPSVAQKSELPPRISNPTRSRSHEPEAAHIPHRRPQGVDPGSFHLLDTPFAKASELQQRLRGTQDGSKHFVRSPKAQGKNMGMGHGARGARSKPPLVPTTHTVSPSAHLATSPALLPTLAPLGHKKHKHRAKESQASCRGLQGPLAAGGSTVMGREQVRELPAVVVYESQAGQAVQRHEHHHHHEHHHHYHHFYQP [chain 1 G2A], for which the response (unweighted spectral counts) was 3.
